Tests used:
[1] = target: T1, recombinant mouse JE/MCP-1 (mouse, UniProt P10148 24-148); test: ELISA, coated antigen
T1 construct: also called rmJE/MCP-1
Summary of the method: (§1)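 Plates coated overnight at 4° C with MCP-1, MCP-2, MCP-3, MCP-4, RANTES, GRO-alpha, MIP-1 alpha, eotaxin, rat MCP-1 or mouse JE (2 μg/ml, carbonate buffer pH 9.6), blocked with BSA. Hybridoma supernatants bound 2 hours at room temperature; TMB colour developed about 10 minutes.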

[2] = target: rat MCP-1 (rat, UniProt P14844 24-148); test: ELISA, coated antigen
Summary of the method: as §1

[3] = target: T2, recombinant human MCP-2 (human, UniProt P80075 24-99); test: ELISA, coated antigen
T2 construct: also called rhMCP-2
T2 sequence (looked up): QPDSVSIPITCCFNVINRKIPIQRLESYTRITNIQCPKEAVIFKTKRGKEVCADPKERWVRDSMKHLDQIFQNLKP
Summary of the method: as §1

[4] = target: T3, recombinant human MCP-3 (human, UniProt P80098 24-99); test: ELISA, coated antigen
T3 construct: also called rhMCP-3
Summary of the method: as §1

[5] = target: T4, recombinant human MCP-4 (human, UniProt Q99616 24-98, limits assumed); test: ELISA, coated antigen
T4 construct: also called rhMCP-4
Summary of the method: as §1

[6] = target: T5, human GRO/MGSA (human, UniProt P09341 35-107); test: ELISA, coated antigen
T5 construct: also called hGRO/MGSA; GRO-alpha
T5 sequence (looked up): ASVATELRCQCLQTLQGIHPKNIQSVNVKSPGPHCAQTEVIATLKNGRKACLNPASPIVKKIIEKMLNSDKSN
Summary of the method: as §1

[7] = target: T6, human MIP-1-alpha (human, UniProt P10147 24-92, limits assumed); test: ELISA, coated antigen
T6 construct: also called hMIP-1-alpha
T6 sequence (looked up): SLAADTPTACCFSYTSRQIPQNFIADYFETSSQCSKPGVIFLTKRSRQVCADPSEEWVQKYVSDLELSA
Summary of the method: as §1

[8] = target: T7, human RANTES (human, UniProt P13501 24-91); test: ELISA, coated antigen
T7 construct: also called hRANTES
T7 sequence (looked up): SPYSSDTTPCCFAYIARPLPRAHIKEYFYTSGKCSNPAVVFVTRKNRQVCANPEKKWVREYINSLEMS
Summary of the method: as §1

[9] = target: T8, human eotaxin (human, UniProt P51671 24-97); test: ELISA, coated antigen
T8 construct: also called hEotaxin
Summary of the method: as §1

[10] = target: T9, human monocyte chemo-attractant protein-1 (MCP-1) (human, UniProt P13500 24-99); test: cell-based or functional assay
[11] = target: T3, recombinant human MCP-3; test: cell-based or functional assay
[12] = target: T2, recombinant human MCP-2; test: Biacore 2000, mAb immobilized, antigen injected
Protocol: (§2) The interaction analysis was performed at 25° C. using two CM5 chips docked in Biacore 2000 optical biosensors. Individual flow cells on each chip were activated with a 7-minute injection of NHS/EDC, carbohydrazide was coupled through the NHS ester using a 7-minute injection, and the residual activated groups were blocked with a 7-minute injection of ethanolamine. […] The oxidized antibody was desalted into 10 mM sodium acetate, pH 5.0, to couple the antibody to the carbohydrazide-modified surface. […] The mAb surfaces were stabilized by reducing the hydrazone bond with 0.1 M sodium cyanoborohydride. The antigen/antibody interaction was tested by injecting duplicate antigen samples diluted in running buffer (10 mM HEPES, 150 mM NaCl, 0.005% surfactant, 200 μg/mL BSA, pH 7.4), in a 300-fold concentration range. The surfaces were regenerated with a 12-second pulse of 15 mM H₃PO₄.

[13] = target: T3, recombinant human MCP-3; test: Biacore 2000, mAb immobilized, antigen injected
Protocol: as §2

[14] = target: T4, recombinant human MCP-4; test: Biacore 2000, mAb immobilized, antigen injected
Protocol: as §2

[15] = target: T9, human monocyte chemo-attractant …; test: ELISA, coated antigen; ELISA, purified clone 1:50 on coated hMCP-1 (2 ug/mL), cross-reactivity panel
Protocol: Determining cross-reactivity of anti-MCP-1 antibodies with other chemokines. ELISA plates (Fisher Cat. No. 12-565-136) were coated with 50 μl/well of MCP-1, MCP-2, MCP-3, MCP-4, RANTES, GRO-alpha, MIP-1 alpha, eotaxin, rat MCP-1 and mouse JE (2 μg/ml) in coating buffer (0.1 M carbonate buffer, pH 9.6, NaHCO₃ 8.4 g/L, then incubated at 4° C. overnight. After incubation, the plates were washed with washing buffer (0.05% Tween 20 in PBS) three times. 200 μL/well blocking buffer (0.5% BSA, 0.1% Tween 20, 0.01% Thimerosal in 1×PBS) were added and the plates incubated at room temperature for 1 hour. After incubation, the plates were washed with washing buffer three times. 50 μL/well of hybridoma supernatants, and positive and negative controls (positive control was anti-MCP-1 antibody purchased from R&D Sciences, and negative control was an antibody to Keyhole Limpet Hemocyanin produced at Abgenix) were added and the plates incubated at room temperature for 2 hours. After incubation, the plates were washed three times with washing buffer. […] After incubation, the plates were washed three times with washing buffer and 100 μL/well of TMB (BioFX Lab. Cat. #TMSK-0 100-01) was added and the plates allowed to develop for about 10 minutes.

[16] = target: T9, human monocyte chemo-attractant …; test: ELISA, hybridoma supernatant on coated MCP-1; ELISA, hybridoma supernatant on plate-coated non-reduced MCP-1 (2 ug/mL)
Protocol: Selection of candidate antibodies for ELISA. After 14 days of culture, hybridoma supernatants were screened for MCP-1-specific monoclonal antibodies. The ELISA plates (Fisher, Cat. No. 12-565-136) were coated with 50 μl/well of MCP-1 (2 μg/mL) in Coating Buffer (0.1 M Carbonate Buffer, pH 9.6, NaHCO₃8.4 g/L), then incubated at 4° C. overnight. After incubation, the plates were washed with Washing Buffer (0.05% Tween 20 in PBS) three times. 200 μl/well Blocking Buffer (0.5% BSA, 0.1% Tween 20, 0.01% Thimerosal in 1× PBS) were added and the plates incubated at room temperature for 1 hour. After incubation, the plates were washed with Washing Buffer three times. 50 μL/well of hybridoma supernatants, and positive and negative controls were added and the plates incubated at room temperature for 2 hours.
The positive control used throughout was XMG2 MCP-1 Group 1, footpad N160-7 and the negative control was XMG2 KLH Group 1, footpad L627-6. After incubation, the plates were washed three times with Washing Buffer. […] In the secondary screen, three sets of samples (positives in first screening) were screened, one set for hIgG detection, one set for hKappa detection, and one set for hlambda detection. After incubation, the plates were washed three times with Washing Buffer. 100 μL/well of TMB (BioFX Lab. Cat. #TMSK-0100-01) were added and the plates allowed to develop for about 10 minutes (until negative control wells barely started to show color), then 50 μL/well stop solution (TMB Stop Solution (BioFX Lab. Cat. #STPR-0100-01) were added and the plates read on an ELISA plate reader at wavelength 450 nm. The OD readings from the positive wells are presented in Table 9.

[17] = target: T9, human monocyte chemo-attractant …; test: Biacore 2000, mAb immobilized, antigen injected; Biacore, 25 C, native MCP-1 injected over immobilized mAb 3.11.2 (250 RU)
Protocol: as §2

T4 sequence (Q99616 24-98 limits assumed): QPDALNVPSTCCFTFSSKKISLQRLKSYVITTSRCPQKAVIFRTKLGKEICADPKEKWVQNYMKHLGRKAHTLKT
T3 sequence (P80098 24-99 limits assumed): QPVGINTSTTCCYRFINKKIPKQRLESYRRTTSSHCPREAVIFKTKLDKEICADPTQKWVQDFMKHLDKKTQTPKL
T9 sequence (P13500 24-99): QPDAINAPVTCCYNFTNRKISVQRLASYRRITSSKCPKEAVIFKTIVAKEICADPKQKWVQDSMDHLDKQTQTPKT
Sequence of rat MCP-1 (P14844 24-148 limits assumed): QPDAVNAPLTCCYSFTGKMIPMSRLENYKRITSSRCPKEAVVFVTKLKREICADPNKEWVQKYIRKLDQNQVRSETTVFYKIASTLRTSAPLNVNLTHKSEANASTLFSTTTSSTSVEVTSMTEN
T1 sequence (P10148 24-148 limits assumed): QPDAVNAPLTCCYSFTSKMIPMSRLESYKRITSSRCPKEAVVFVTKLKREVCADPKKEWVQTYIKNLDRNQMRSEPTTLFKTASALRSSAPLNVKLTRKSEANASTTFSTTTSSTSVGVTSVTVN
T8 sequence (P51671 24-97 limits assumed): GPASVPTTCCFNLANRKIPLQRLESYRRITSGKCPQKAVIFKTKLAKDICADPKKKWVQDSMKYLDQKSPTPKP

B1: anti-MCP-1 mAb 3.11.1 (antibody, human IgG4, kappa, V domains shown)
VH: QVQLQESGPGLVKPSQTLSLTCTVSGGSISSGGNYWNWIRQHPGKGLEWIGYIYYSGNTYYNPSLKSRITISIDTSKNQFSLTLSSVTAADTAVYYCARDGGDDAFDIWGQGTMVTVSS
VL: DIQMTQSPSSLSASVGDRVTITCQASQDISNYLNWYQQKPGKAPKLLIYDASNLETGVPSRFSGSGSGTDFTFTINSLQPEDIATYYCQEYNNLPYSFGQGTKLEIKR
For B1, which “ELISA OD” value [1] is on record?
The value was 0.063 OD450.

And the “ELISA OD” value [2]?
Its value is 0.057 OD450.

And the “ELISA OD” value [3]?
The value was 0.336 OD450.

What about the “ELISA OD” value [4] of the same binder?
Its value is 1.32 OD450.

What about the “ELISA OD” value [5] of the same binder?
The value was 0.981 OD450.

What about the “ELISA OD” value [6] of the same binder?
Its value is 0.054 OD450.

What about the “ELISA OD” value [7] of the same binder?
Its value is 0.053 OD450.

And the “ELISA OD” value [8]?
The value was 0.064 OD450.

And the “ELISA OD” value [9]?
The value was 0.339 OD450.

And the “IC50 Ca++ Flux” value [10]?
Its value is 0.092 µg/mL.

What about the “IC50 Chemotaxis” value [10] of the same binder?
Its value is 0.33 µg/mL.

And the “IC50, inhibition of MCP-3-induced migration of THP-1 cells (chemotaxis assay, MCP3 at 0.166 nM)” value [11]?
The value was 0.139 nM.

And the Kd [12]?
The Kd was 0.046 nM.

What about the koff [12] of the same binder?
Its koff is 0.012 s⁻¹.

And the kon [12]?
The kon was 2.6e+08 M⁻¹ s⁻¹.

And the Kd [13]?
Its Kd is 0.049 nM.

What about the koff [13] of the same binder?
The koff was 0.0074 s⁻¹.

And the kon [13]?
The kon was 1.5e+08 M⁻¹ s⁻¹.

What about the Kd [14] of the same binder?
Its Kd is 0.0037 nM.

And the koff [14]?
Its koff is 0.00055 s⁻¹.

What about the kon [14] of the same binder?
The kon was 1.5e+08 M⁻¹ s⁻¹.

What about the “ELISA OD” value [15] of the same binder?
The value was 0.803 OD450.

And the “ELISA OD-MCP-1” value [16]?
The value was 4 OD450.

What about the Kd [17] of the same binder?
Its Kd is 0.0033 nM.

And the koff [17]?
The koff was 0.001 s⁻¹.

And the kon [17]?
Its kon is 3e+08 M⁻¹ s⁻¹.
